# From US7550150B2, “Methods of treating or preventing a disease, disorder or condition associated with a viral infection” (Barros Research Institute, priority 2005, dated 2009)
# Where “and” joins values, the source holds several entries; their conditions need not be identical. Identical values can stand only once. Like-named read-outs stand apart in the source and are kept apart here. Marks after values point to notes of the source that are not given here.
# B1: rBBX-01: Recombinant Apicomplexa-related protein (ARP) having the sequence of SEQ ID NO:20; termed Barrogen, also called rBBX-01 or E1 (protein, listed as Eimeria tenella)
# chain: GEEADTQAWDTSVREWLVDTGRVFAGGVASIADGCRLFGAAVEGEGNAWEELVKTNYQIEVPQEDGTSISVDCDEAETLRQAVVDGRAPNGVYIGGTKYKLAEVKRDFTFNDQNYDVAILGKNKGGGFLIKTPNENVVIALYDEEKEQNKADALTTALNFAEYLYQGGF
# What was measured:
# [1] = tested on: influenza virus; conditions: orally; cited from earlier work
# [2] = tested on: Punta Toro virus, Adames strain; set-up: species or system C57BL/6 mice; conditions: mouse, in vivo
# [3] = toxicity controls; 75 mg/kg/day i.p. bid x5
# [4] = for tolerability in toxicity control animals: all surviving and losing no weight during therapy; for Tox Controls Surv/Total: uninfected, two treatments
# [5] = tested on: Banzi virus (H336 strain); assay: Banzi virus infection in mice (Example 7); assay type: in vivo, BALB/c mice; conditions: for Infected, treated MDD ± SD: mice dying before day 21; for weight loss: placebo 9.6%; for Average brain titer: placebo 6.9
# [6] = Uninfected toxicity controls (Example 7); assay type: in vivo, BALB/c mice
# Experimental: Experiment Design: Animals were injected i.p. with either 10^−3 dilution of Banzi virus stocks diluted in minimal essential media (MEM), or were sham-inoculated. This virus concentration had previously produced approximately 90% mortality in mice. Animals were treated with two doses of 10, 1, 0.1 μg/mouse of Barrogen or with drug vehicle (placebo group). The first dose was administered 4-6 h prior to virus inoculation. The second dose was given 48 h later. As a positive control a group of 15 infected mice were treated with a single dose of Ampligen® 24 h prior to virus inoculation at a dose of 1 mg/kg. Groups of 3 sham-inoculated animals used as toxicity controls were treated with identical compounds on identical schedules to the infected animals.
# [7] = tested on: Punta Toro virus, Adames strain; set-up: species or system C57BL/6 mice; conditions: mouse, in vivo; remark: listed apart in the source
# [8] = tested on: Banzi virus (H336 strain); assay type: in vivo, Balb/c mice; conditions: for Infected, treated % survival (alive/total): 21 days; for Infected, treated % Mean wt. change: day 0 vs day 10
# [9] = every dose used
# [10] = dosages used; no deaths or weight loss
# [11] = dosages used; no deaths or weight loss; remark: listed apart in the source
# [12] = 0.1 μg/mouse/day i.p. 4-6 h pre-virus and 48 hr later
# [13] = 1 μg/mouse/day i.p. 4-6 h pre-virus and 48 hr later
# [14] = 10 μg/mouse/day i.p. 4-6 h pre-virus and 48 hr later
# [15] = 0.1 μg/treatment i.p. −4 hpi and 2 dpi
# [16] = 1 μg/treatment i.p. −4 hpi and 2 dpi
molecule,measurement,setting,value
CCOC(=O)C1=C[C@@H](OC(CC)CC)[C@H](NC(C)=O)[C@@H](N)C1 [Oseltamivir],doses down to which highly active against influenza virus infections in mice,[1],~1 mg/kg/day
"NC(=O)c1ncn([C@@H]2O[C@H](CO)[C@@H](O)[C@H]2O)n1 [Ribavirin, reference compound]",Liver virus,[2],not detectable
same,weight loss during the treatment period,[3],0.8 g
GM-CSF: Granulocyte macrophage - colony stimulating factor,tolerability in toxicity control animals,[4],well tolerated
same,Tox Controls Surv/Total,[4]; 20 ng i.p.,3/3
same,Tox Controls Surv/Total,[4]; 200 ng i.p.,3/3
"poly I · poly C12u [Ampligen, reference compound]","Infected, treated Surv/Total",[5]; 1 mg/kg i.p. single dose 24 h pre-virus exposure,10/10 (100%)***
same,survival,"[5]; 1 mg/kg single dose 24 h prior, p<0.001",100%
same,animals with virus detected in brain,"[5]; 1 mg/kg, 8 dpi",1 of the 5
same,brain virus titer,"[5]; 1 mg/kg, 8 dpi, placebo 6.9 log10 CCID50/g of tissue",5.6
same,average weight gain,"[5]; 1 mg/kg, by 8 dpi",1.9%
same,Uninfected toxicity control Surv/Total,[6]; 1 mg/kg i.p. single dose,3/3 (100%)
B1,mice protected (survival),[2],100%
same,reduction of serum viral load,[2],more than 2 logs
same,serum ALT,[2],markedly reduced
same,Hepatic icterus reduced,[7],17-43%
same,mice protected / cured,[7],100%
same,serum ALT,[7],markedly reduced
same,serum virus titers,[7],significantly reduced
same,Mean Liver Score ± SD,[7]; ip,2.6 ± 0.2 and 2.7 ± 0.3 and 2.0 ± 0.6 and 2.9 ± 0.5
same,"Infected, treated Surv/Total",[5]; [12],5/10 (50%)*
same,"Infected, treated MDD ± SD",[5]; [12],8.4 ± 5.5
same,virus in the brains,"[5]; 0.1 μg/mouse, 8 dpi",No virus was detected
same,weight loss,"[5]; 0.1 μg/mouse, 8 dpi",0.2%
same,survival,"[5]; 0.1 μg/mouse, placebo 10%, p<0.05",50%
same,"Infected, treated Surv/Total",[5]; [13],7/10 (70%)***
same,"Infected, treated MDD ± SD",[5]; [13],14.3 ± 1.5
same,animals with virus detected in brain,"[5]; 1 μg/mouse, 8 dpi",2 out of 5
same,Average brain titer,"[5]; 1 μg/mouse, 8 dpi",4.6 log10 CCID50
same,weight loss,"[5]; 1 μg/mouse, 8 dpi",0.5%
same,survival,"[5]; 1 μg/mouse, placebo 10%, p<0.001",70%
same,"Infected, treated Surv/Total",[5]; [14],4/10 (40%)
same,"Infected, treated MDD ± SD",[5]; [14],14.2 ± 3.5
same,animals with virus detected in brain,"[5]; 10 μg/mouse, 8 dpi",2 out of 5
same,Average brain titer,"[5]; 10 μg/mouse, 8 dpi",2.8 log10 CCID50
same,weight loss,"[5]; 10 μg/mouse, 8 dpi",1.3%
same,survival,"[5]; 10 μg/mouse, not significantly higher than placebo",40%
same,Uninfected toxicity control Surv/Total,"[6]; 0.1 μg/mouse/day i.p., two doses 48 h apart",3/3 (100%)
same,Uninfected toxicity control Surv/Total,"[6]; 1 μg/mouse/day i.p., two doses 48 h apart",3/3 (100%)
same,Uninfected toxicity control Surv/Total,"[6]; 10 μg/mouse/day i.p., two doses 48 h apart",3/3 (100%)
same,"Infected, treated % survival (alive/total)",[8]; [15],47% (7/15)**
same,"Infected, treated % Mean wt. change",[8]; [15],-1.4 g
same,"Infected, treated % survival (alive/total)",[8]; [16],47% (7/15)**
same,"Infected, treated % Mean wt. change",[8]; [16],-1.0 g
same,mean-day-to-death,[8]; Barrogen-treated vs placebo-treated mice (FIG. 30),significant increase
same,tolerability in toxicity control mice,[9],well tolerated
same,tolerability in toxicity controls,[10],well tolerated
same,tolerability in toxicity control animals,[4],well tolerated
same,tolerability in toxicity controls,[11],well tolerated
